Experimental data: the RNAGym collection of RNA variant scans (doi:10.1073/pnas.2313332121)
Variants at the floor of the assay were thinned out.

B1: TPR 5TU (parent)
chain: GGAUCUUCUCGAUCUAACAAAAAAGACAAAUCUGCCACAAAGCUUGAGAGCAUCUUCGGAUGCAGAGGCGGCAGCCUUCGGUGGCGCGAUAGCGCCAACGUUCUCAACUAUGACACGCAAAACGCGUGCUCCGUUGAAUGGAGUUUAUCAUG

Variants of: B1
Experiment: polymerase ribozyme fitness, log enrichment relative to wild type (log ratio); higher = more active; in vitro selection for triplet polymerase activity
Summary of the method: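 A heterodimeric triplet polymerase ribozyme had each of its subunits mutagenized by PCR into a library, which was transcribed. One round of in vitro selection, done in triplicate, annealed each library with a biotinylated primer, its partner subunit and triplets, then incubated it frozen at −7 °C before gel excision of extended constructs, streptavidin-bead capture and RT-PCR. Fitness is the logarithm of genotype enrichment relative to wild-type enrichment, based on Illumina sequencing of inputs and outputs and inverse-variance-weighted replicate averages. A base-2 logarithm is used, and genotypes were kept only with ≥10 input reads and ≥1 read per output.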

Going from GGAUCGUCUCGAGCUAACAAAAAAGACAAAUCUGCCACAAUGCUUGAGAGCCUCUUCGGAUGCAGAGGCGGCAGCCUUCGGUGGCGCGAUAGCGCCAACGUUCUCAACUAUGACACGCAAAACGCGUGCUCCUUUGAGUGGAGUUUAGCAUG [U6G U13G A41U A52C G133U A138G U148G] to GGAUCGUCUGGAUCUAACAAAAAAGACAAAUCUGCCACAAAGCUUGAGAGCAUCUUCGGAUGCAGAGGCGGCAGCCUUCGGUGGCGCGAUAGCGCCAACGUUCUCAACUAUGACACGCAAAACGCGUGCUCCGUUGAAUGGAGUUUAUCAUG [U6G C10G], the “polymerase ribozyme fitness (log ratio)” value rises from no more than -4.2 to -3.01.

Compared with GGAUCGUCUCGAUCUAACAAAAAAGACAAAUCUGCCACAAAGCUUGAGAGCAUCUUCGGAUGCAGAGGCGGCAGCCUUCGGUGGCGCAAUAGCGCCAACGUUCUCAACUAUGACACGCAAAACGCGUGCUCCGUUGAAUGGAGUUUAUCAUG [U6G G88A], GGAUCGUCUCGAUCUAACAAAAAAGACAAAUCUGCCACAAAGCUUGAGACCAUCUACGGAUGCAAAGGCGGCCGCCUUCGGUGGCGCGAUAGCGCUAACGUUCUCAACUAUGACACGCAAAACGCGUGCUCCGUUGAACGGAGUUUAUCAUG [U6G G50C U56A G65A A73C C96U U139C] is lower in “polymerase ribozyme fitness (log ratio)” value: -4.11 for the first, no more than -4.2 for the second.

First: GGAUCUACUCGAUCUAACAAACAAGACAAAUCUGCCACAAAGCUUGAGAGCAUCUUCGGAUGCAGAGGCGGCAGCCUUCGGUGGUGCGAUAGCGCCAACGUUCUCAACUAUGACACGCAAAACGCGUGCUCCGUUGAAUGGAGUUUAUCAUG [U7A A22C C85U]
Second: GGAUCGUCUCGAUCUAAGAAAAAAGACAAAUCUGCCACAAAGCUUGAGAGCAUCUUCGGAUGCAGCGCCGGCAGCCUUCGGUGGCGCCAUAGCGCCAACGUUCUCAACUAUGACACGCAAAACGCGUGCUCCGUUGAAUGGAGUUUAUCAUC [U6G C18G A66C G68C G88C G152C]
The “polymerase ribozyme fitness (log ratio)” value of the first is higher: -4.04 for the first, no more than -4.2 for the second.

Compared with GGAUCGUCUCAAUCUAACAAAAAAGACAAAUCUGCCACAAAGCUUGAGAGCAUCUUCGGAUGCAGAGGCGGCAGCCUUCGGUGGCGCGAUAGCGCCAACGUUCUCAACUAUGACACGCAAAACGCGUGCUCCGUUGAAUGGAGUUUAUCAUG [U6G G11A], GGAUCGUCUCGAUCUAACAAAAAAGACAAAUCUGCCACAAAGAUUGAGAGCCUCUUCGGAUGCAGAGGCGGCAGCCUUCGGUGGAGCGAUAGCGCCAUCGUUCUCAACUAUGCCACGCAAAACGCGUGCUCCGUUGAAUGGAGUUUAUCAUG [U6G C43A A52C C85A A98U A113C] is lower in “polymerase ribozyme fitness (log ratio)” value: -0.786 for the first, no more than -4.2 for the second.

GGAUCGUCUCGAUCUAACAAAAAAGACAAAUCUGGCACAAAGCUUGAGAGCAUCUUCGGAUGCAGAGGCGGCAGCCUUCGGUGGCGCGAUAGCGACAAUGUACUCAACUACGACACGCAAAACGCGUGCUCCGUUGAAUGGAGUUUAUCAUG [U6G C35G C95A C99U U102A U111C] and GGAUCGUCUCCAUUUAACAAAAAAGACAAAUCUGCCACAAAGCUUGAGAGCAUCUUCGGAUGCAGAGGCGGCAGCCUUCGGUGGCGCGAUAGAGCCAACGUUCUCAACUAUGACACGCAAAACGCGUGCUCCGUUGAAUGGAGUUUAUCAUG [U6G G11C C14U C93A] cannot be ordered by “polymerase ribozyme fitness (log ratio)” value: no more than -4.2 for the first, no more than -4.2 for the second.

Going from GGAUCGUCUCGAUCUAACAAAAAAGACAAAUCUGCCACAAAGCUUGAGAGCAUCUUCGGAUGCAGAGGCGGCAGCCUUCAGGGGCGCGAUAGCGCCAACGUUCUCAACUAUGACACGCAAAACGCGUGCUCCGUUGAAUGUAGUUUAUCAUG [U6G G80A U82G G141U] to GGAUCGUCUCGAUCUAACAAAAAAGACAAAUCUGCCACAAAGCUUGAGAGCAUCUUCGGAUGCAGAGGCGGCAGCCUUCGGUCGCGCGAUAGCGCCAACGUUCUCAACUAUGACACGCAAAACGCGUGCUCCGUUGAAUGGAGUUUAUCAUG [U6G G83C], the “polymerase ribozyme fitness (log ratio)” value falls from 0.34 to -0.223.

Going from GGAUCGUCUCGAUCUAACAAAAAAGACAAAUCUGCCACAAAGCUUGAGAGCAUCUUCGUAAGCAGAGGCGGUAGCCUUCGGUGGCGCGGAAGGGCCAACGUUCUCAAUUAUGACACGCAAAUCGCGUGCUCCGUUGAAUGGAGUUUAUCAUG [U6G G59U U61A C72U A89G U90A C93G C108U A122U] to GGAUCGUCUCGAUCUAACAAAAAAGACAAAUCUGCCACAAAGCUUGAGAGCAUCUUCGGAUGCAGAGGCGGCAGCCUUCGGUGGCGCGAUAGCCCCAACGUUCUCAACUAUGACACGCAAAAAGCGUGCUCCGUUGAAUGGAGUUUAUCAUG [U6G G94C C123A], the “polymerase ribozyme fitness (log ratio)” value rises from no more than -4.2 to 0.0628.

Going from GGAUCGUCUCGAUCUAACAAAAAAGACAAAUCUGCCACAAAGCUUGAGAGAAUCUUCGGAUGCAGAGGCGGCAGCCUUCGGUCGCGCGAUAGCGCCAACGUUCUCAACUAUGACACGCAAAACGCGUGCUCCGUUGAAUGGAGUUUAUCAUG [U6G C51A G83C] to GGAUCGUCUCGAUCUAACAAAAAAGACAAAUCUGCCACAAAGCUUGAGAGCAUCUUCGGAUGCAGAGGCGGCAGCCUUAGGUGCCGCGAUAGCGCCAACGUUCUCAACUAUGACACGCAAAACGCGUGCUCCGUUGAAUGGAGUUUAUCAUA [U6G C79A G84C G152A], the “polymerase ribozyme fitness (log ratio)” value falls from -2.97 to no more than -4.2.

Going from GGAUCGUCUCGAUCUAACAAAAAAGACAAAUCUGCCACAAAGCUUGAGAGCAUCUUCGGAUGCAGAGGCGGCAGCCUUCGGUGGCGCGAUAGCGUGAACGUUCUCAACUAUGACACGCAAAACGCGUGCUCCGUUGAAUGGAGUUUAUCAUG [U6G C95U C96G] to GGAUCGUCUCGAUCUAACAAAAAAGACAAAUCUGCCACAAAGCUUGAGAGCAUCUUCGGAUGCAGAGGCGGCAGCCUUCCGUGGCGCGAUAGCGCCAACGUUCUCAACUAUGACACGCAAAACGCGUGCUCCGUUGAAUGGAGUUUAUAAUG [U6G G80C C149A], the “polymerase ribozyme fitness (log ratio)” value falls from -0.705 to no more than -4.2.

In the case of GGAUCGUCUCGAUCUAACAAAAAAGACAAAUCUGCCACAAAGCUUAAGAGCAUCUUCGGAUGCAGAGGCGGCAGCCUUCGGUGGCGCGAUAGCGCCAACGUUCUCAACUAUGUCACGCAAAACGUGUGCUCCGUUUAAUGGAGUUCAUCAUG [U6G G46A A113U C125U G136U U146C], the “polymerase ribozyme fitness (log ratio)” value is reported as no more than -4.2.
